The text below walks through data of patent US20210380703A1.

B1: 371_F03 (antibody, V domains shown)
VH: EVQLLESGGGLVQPGGSLRLSCAASGFTFSSYSMNWVRQAPGKGLEWVSGINYNGGYTSYADSVKGRFTISRDNSKNTLYLQMNSLRAEDTAVYYCARGATWHDTHLDYWGQGTLVTVSS
VL: DIQMTQSPSSLSASVGDRVTITCRASQSIITYLNWYQQKPGKAPKLLIYAATSLHSGVPSRFSGSGSGTDFTLTISSLQPEDFATYYCQQSYDNPLTFGGGTKVEIK
B2: 372_B09 (antibody, V domains shown)
VH: EVQLLESGGGLVQPGGSLRLSCAASGFTFSSYSMNWVRQAPGKGLEWVSSINYNSGYTSYADSVKGRFTISRDNSKNTLYLQMNSLRAEDTAVYYCARGATWHDTHLDYWGQGTLVTVSS
VL: DIQMTQSPSSLSASVGDRVTITCRASQSILTYLNWYQQKPGKAPKLLIYAATSRASGVPSRFSGSGSGTDFTLTISSLQPEDFATYYCQQSYETPLTFGGGTKVEIK
B3: 372_H11 (antibody, V domains shown)
VH: EVQLLESGGGLVQPGGSLRLSCAASGFTFSSYGMHWVRQAPGKGLEWVAGINYNGGYTSYADSVKGRFTISRDNSKNTLYLQMNSLRAEDTAVYYCARGATWHDTHLDYWGQGTLVTVSS
VL: DIQMTQSPSSLSASVGDRVTITCRASQSILSYVNWYQQKPGKAPKLLIYAATSRASGVPSRFSGSGSGTDFTLTISSLQPEDFATYYCQQSYENPLTFGGGTKVEIK
B4: 371_G01 (antibody, V domains shown)
VH: EVQLLESGGGLVQPGGSLRLSCAASGFTFSDYSMNWVRQAPGKGLEWVSNINYNGGYTSYADSVKGRFTISRDNSKNTLYLQMNSLRAEDTAVYYCARGATWHDTHLDYWGQGTLVTVSS
VL: DIQMTQSPSSLSASVGDRVTITCRASQSILTYLNWYQQKPGKAPKLLIYAATSLASGVPSRFSGSGSGTDFTLTISSLQPEDFATYYCQQSYDLPLTFGGGTKVEIK
B5: 371_H11 (antibody, V domains shown)
VH: EVQLLESGGGLVQPGGSLRLSCAASGFTFSSYSMNWVRQAPGKGLEWVSGINYNGGYKGYADSVKGRFTISRDNSKNTLYLQMNSLRAEDTAVYYCARGATWHDTHLDYWGQGTLVTVSS
VL: DIQMTQSPSSLSASVGDRVTITCRASQSILTYLNWYQQKPGKAPKLLIYATTSRHSGVPSRFSGSGSGTDFTLTISSLQPEDFATYYCQQSYESPLTFGGGTKVEIK
B6: 373_D06 (antibody, V domains shown)
VH: EVQLLESGGGLVQPGGSLRLSCAASGFTFSSYSMNWVRQAPGKGLEWVAGINYNGGYTSYADSVKGRFTISRDNSKNTLYLQMNSLRAEDTAVYYCARGATWHDTHLDYWGQGTLVTVSS
VL: DIQMTQSPSSLSASVGDRVTITCRASQSIVTYLNWYQQKPGKAPKLLIYAATSRASGVPSRFSGSGSGTDFTLTISSLQPEDFATYYCQQSYDTPLTFGGGTKVEIK
B7: 374_D04 (antibody, V domains shown)
VH: EVQLLESGGGLVQPGGSLRLSCAASGFTFSSYSMNWVRQAPGKGLEWVAGINYNGGYTSYADSVKGRFTISRDNSKNTLYLQMNSLRAEDTAVYYCARGATWHDTHLDYWGQGTLVTVSS
VL: DIQMTQSPSSLSASVGDRVTITCRASQSILSYLNWYQQKPGKAPKLVIYAATSRHSGVPSRFSGSGSGTDFTLTISSLQPEDFATYYCQQSYDTPLTFGGGTKVEIK
B8: 373_F07 (antibody, V domains shown)
VH: EVQLLESGGGLVQPGGSLRLSCAASGFTFSSYSMNWVRQAPGKGLEWVSGINYNSGYKSYADSVKGRFTISRDNSKNTLYLQMNSLRAEDTAVYYCARGATWHDTHLDYWGQGTLVTVSS
VL: DIQMTQSPSSLSASVGDRVTITCRASQSILSYLNWYQQKPGKAPKLLIYAATSLASGVPSRFSGSGSGTDFTLTISSLQPEDFATYYCQQSYETPLTFGGGTKVEIK
B9: 372_E08 (antibody, V domains shown)
VH: EVQLLESGGGLVQPGGSLRLSCAASGFTFSDYSMNWVRQAPGKGLEWVSNINYNGGYTSYADSVKGRFTISRDNSKNTLYLQMNSLRAEDTAVYYCARGATWHDTHLDYWGQGTLVTVSS
VL: DIQMTQSPSSLSASVGDRVTITCRASQSIITYLNWYQQKPGKAPKLLIYAATSRASGVPSRFSGSGSGTDFTLTISSLQPEDFATYYCQQSYNLPLTFGGGTKVEIK
B10: 374_A04 (antibody, V domains shown)
VH: EVQLLESGGGLVQPGGSLRLSCAASGFTFSSYSMNWVRQAPGKGLEWVAGINYNGGYTSYADSVKGRFTISRDNSKNTLYLQMNSLRAEDTAVYYCARGATWHDTHLDYWGQGTLVTVSS
VL: DIQMTQSPSSLSASVGDRVTITCRASQSILTYLNWYQQKPGKAPKLVIYAATSRASGVPSRFSGSGSGTDFTLTISSLQPEDFATYYCQQSYDTPLTFGGGTKVEIK
B11: 374_A05 (antibody, V domains shown)
VH: EVQLLESGGGLVQPGGSLRLSCAASGFTFSDYGMNWVRQAPGKGLEWVANINYNGGYKGYADSVKGRFTISRDNSKNTLYLQMNSLRAEDTAVYYCARGATWHDTHLDYWGQGTLVTVSS
VL: DIQMTQSPSSLSASVGDRVTITCRASQSIVRYLNWYQQKPGKAPKLVIYAATSLASGVPSRFSGSGSGTDFTLTISSLQPEDFATYYCQQSYELPLTFGGGTKVEIK
B12: 373_B09 (antibody, V domains shown)
VH: EVQLLESGGGLVQPGGSLRLSCAASGFTFDSYSMNWVRQAPGKGLEWVSGINYNGGYKSYADSVKGRFTISRDNSKNTLYLQMNSLRAEDTAVYYCARGATWHDTHLDYWGQGTLVTVSS
VL: DIQMTQSPSSLSASVGDRVTITCRASQSILSYLNWYQQKPGKAPKLVIYAATSLASGVPSRFSGSGSGTDFTLTISSLQPEDFATYYCQQSYETPLTFGGGTKVEIK
B13: 371_F09 (antibody, V domains shown)
VH: EVQLLESGGGLVQPGGSLRLSCAASGFTFSSYSMNWVRQAPGKGLEWVAGINYNGGYTSYADSVKGRFTISRDNSKNTLYLQMNSLRAEDTAVYYCARGATWHDTHLDYWGQGTLVTVSS
VL: DIQMTQSPSSLSASVGDRVTITCRASQSILTYLNWYQQKPGKAPKLLIYAATSRASGVPSRFSGSGSGTDFTLTISSLQPEDFATYYCQQSYDNPLTFGGGTKVEIK
B14: 374_G05 (antibody, V domains shown)
VH: EVQLLESGGGLVQPGGSLRLSCAASGFTFSSYSMNWVRQAPGKGLEWVSNINYNSGYKGYADSVKGRFTISRDNSKNTLYLQMNSLRAEDTAVYYCARGATWHDTHLDYWGQGTLVTVSS
VL: DIQMTQSPSSLSASVGDRVTITCRASQSIISYLNWYQQKPGKAPKLLIYAATSRASGVPSRFSGSGSGTDFTLTISSLQPEDFATYYCQQSYDLPLTFGGGTKVEIK
B15: 374_D09 (antibody, V domains shown)
VH: EVQLLESGGGLVQPGGSLRLSCAASGFTFDSYGMNWVRQAPGKGLEWVANINYNGGYKGYADSVKGRFTISRDNSKNTLYLQMNSLRAEDTAVYYCARGATWHDTHLDYWGQGTLVTVSS
VL: DIQMTQSPSSLSASVGDRVTITCRASQSIISYVNWYQQKPGKAPKLLIYAATSLASGVPSRFSGSGSGTDFTLTISSLQPEDFATYYCQQSYDTPLTFGGGTKVEIK

The target in the assay is Human Fc (human). In words: ELISA; negative control. On the technique in general: ELISA stands for enzyme-linked immunosorbent assay.
In the case of B1, the optical density stood at 0.252 OD.

In turn, B2 yielded an optical density of 0.308 OD.

In turn, B3 had an optical density of 0.392 OD.

With B4, the optical density came out at 0.375 OD.

B5 showed an optical density of 0.363 OD.

Consider B6, for which the optical density is 0.192 OD.

B7 registered an optical density of 0.179 OD.

As for B8, the optical density came out at 0.172 OD.

In turn, B9 returned an optical density of 0.369 OD.

In turn, B10 registered an optical density of 0.275 OD.

For the molecule B11, the optical density was found to be 0.159 OD.

The molecule B12 registered an optical density of 0.172 OD.

For B13, the optical density came out at 0.602 OD.

In turn, B14 came in with an optical density of 0.158 OD.

Turning to B15, the optical density came out at 0.171 OD.
